Assay results from PMC3141235.

Target: yAsf1 mutant V94R labeled with Alexa Fluor 532 (S. cerevisiae)
Experiment: other fluorescence titration

- Kd: 290 nM
Substance: X. laevis H3^C110A / H4^T71C labeled with the Qsy9 fluorescence quencher (complex)
